Usually Kd stands for a measure of binding affinity in units of concentration.

The target of the experiment is maxadilan (recombinant represented by SEQ ID NO: 2, peptide fragment GSIL- bound to the N-terminal cysteine … (Lutzomyia longipalpis (sand fly), UniProt P30659 24-86)). The experiment can be described thus: ^125I-Max saturation binding and Scatchard plot, rabbit spleen crude membrane fraction, filtration.

B1: maxadilan receptor of the rabbit (maxadilan-specific receptor in crude membrane fractions from rabbit brain and rabbit spleen) (receptor)
chain: MAGVLQVSLAALLLLPAATAMHSDCIFKKEQALCLEKIQRANDLLGLNDSSPGCPGMWDNITCWKPAHVGEMVLVSCPELFRIFNPDQGEFDFAESTSLDLADMGVVSRNCTEDGWSEPFPHYFDACGFDEYESEPGDQDYYYLSVKALYTVGYSTSLVTLTTAMVILCRFRKLHCTRNFIHMNLFVSFMLRAISVFIKDWILYAEQDSNHCFVSTVECKAVMVFFHYCVVSNYFWLFIEGLYLFTLLVETFFPERRYFYWYTMIGWGTPTVCVAVWATLRLYFDDTGCWDMNDSTALWWVIKGPVVASIMVNFVLFIGIIIILVQKLQSPDTGGNESSIYLRLARSTLLLIPLFGIHYTVFAFSPENVSKRERLVFELGLGSFQGFVVAVLYCFLNGEVQAEIKRKWRSWKVNRYFAVDFKHRHPSLASSGVNGGTQLSILSKSSSQLRMSGLPADNLAT
As to B1, the dissociation constant Kd was determined as 0.055 nM.

The values above are taken from US6462016 (SHISEIDO, dated 2002).
